The results in this text go back to article doi:10.1101/2025.11.08.687396 (bioRxiv, 2025).

To fix the notation:
B2: UBXN7-SBP (natural protein, human, UniProt O94888 1-489, looked up)
chain: MAAHGGSAASSALKGLIQQFTTITGASESVGKHMLEACNNNLEMAVTMFLDGGGIAEEPSTSSASVSTVRPHTEEEVRAPIPQKQEILVEPEPLFGAPKRRRPARSIFDGFRDFQTETIRQEQELRNGGAIDKKLTTLADLFRPPIDLMHKGSFETAKECGQMQNKWLMINIQNVQDFACQCLNRDVWSNEAVKNIIREHFIFWQVYHDSEEGQRYIQFYKLGDFPYVSILDPRTGQKLVEWHQLDVSSFLDQVTGFLGEHGQLDGLSSSPPKKCARSESLIDASEDSQLEAAIRASLQETHFDSTQTKQDSRSDEESESELFSGSEEFISVCGSDEEEEVENLAKSRKSPHKDLGHRKEENRRPLTEPPVRTDPGTATNHQGLPAVDSEILEMPPEKADGVVEGIDVNGPKAQLMLRYPDGKREQITLPEQAKLLALVKHVQSKGYPNERFELLTNFPRRKLSHLDYDITLQEAGLCPQETVFVQERN
notes: human UBXN7, wild type; also called SBP-tagged version of UBXN7; homolog of Ubx5; source: E. coli BL21 CodonPlus (DE3) RIPL, purified (Ni-NTA, SEC); not shown: SBP, C-terminal, kept

What all share (details): both partners purified
Test [1] has as its target B2. Kind of test: pull-down; UBXN7-SBP on streptavidin agarose with p97, human UN, Yod1-C160S and Ub(n)-TAIL, 1 μM each, SEC buffer, 5 mM ATPγS, 1 h, 4°C, eluted with 2 mM biotin; Coomassie-blue staining.
Test [2] has as its target T1, human Npl4 (human, UniProt Q8TAT6 1-608).
T1 construct: human Npl4; Used as the human UN complex with hUfd1; also called hNpl4; Npl4 of the human UN complex; source: purified
Described as above.

Test [3] deals with T2, human p97 ATPase (human, UniProt P55072 1-806).
T2 construct: human p97 (VCP), wild type; pET28 with N-terminal His6-tag and a TEV-protease cleavage site; also called VCP; homolog of Cdc48; source: E. coli BL21 CodonPlus (DE3) RIPL, purified (Ni-NTA, SEC)
T2 sequence (P55072 whole entry): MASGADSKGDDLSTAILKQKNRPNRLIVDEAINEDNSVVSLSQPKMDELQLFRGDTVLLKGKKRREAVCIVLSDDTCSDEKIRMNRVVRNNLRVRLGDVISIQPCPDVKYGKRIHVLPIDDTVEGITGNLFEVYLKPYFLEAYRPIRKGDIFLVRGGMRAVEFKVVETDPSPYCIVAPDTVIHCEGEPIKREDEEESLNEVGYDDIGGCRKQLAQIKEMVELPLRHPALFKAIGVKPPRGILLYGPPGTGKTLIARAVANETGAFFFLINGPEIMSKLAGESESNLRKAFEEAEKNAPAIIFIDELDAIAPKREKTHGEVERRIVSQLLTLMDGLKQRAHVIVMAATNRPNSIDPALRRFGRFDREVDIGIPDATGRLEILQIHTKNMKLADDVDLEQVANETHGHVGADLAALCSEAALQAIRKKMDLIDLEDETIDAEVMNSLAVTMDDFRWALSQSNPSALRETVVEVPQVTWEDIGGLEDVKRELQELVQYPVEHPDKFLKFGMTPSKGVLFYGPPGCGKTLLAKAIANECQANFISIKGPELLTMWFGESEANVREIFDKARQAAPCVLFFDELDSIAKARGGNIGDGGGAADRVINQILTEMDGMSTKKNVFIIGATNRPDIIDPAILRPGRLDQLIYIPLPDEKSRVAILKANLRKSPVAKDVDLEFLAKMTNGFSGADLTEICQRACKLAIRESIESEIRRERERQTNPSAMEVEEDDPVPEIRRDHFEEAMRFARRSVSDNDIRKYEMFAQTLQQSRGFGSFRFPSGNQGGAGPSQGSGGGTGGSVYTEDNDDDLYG
Described as above.

In test [4] the target is T3, Cdc48 (yeast (S. cerevisiae), UniProt P25694 1-835).
T3 construct: Cdc48 ATPase of yeast, wild type; pET28 with N-terminal His6-tag and a TEV-protease cleavage site; also called Cdc48 ATPase; wild-type (WT) Cdc48; source: E. coli BL21 CodonPlus (DE3) RIPL, purified (Ni-NTA, SEC)
T3 sequence (P25694 whole entry): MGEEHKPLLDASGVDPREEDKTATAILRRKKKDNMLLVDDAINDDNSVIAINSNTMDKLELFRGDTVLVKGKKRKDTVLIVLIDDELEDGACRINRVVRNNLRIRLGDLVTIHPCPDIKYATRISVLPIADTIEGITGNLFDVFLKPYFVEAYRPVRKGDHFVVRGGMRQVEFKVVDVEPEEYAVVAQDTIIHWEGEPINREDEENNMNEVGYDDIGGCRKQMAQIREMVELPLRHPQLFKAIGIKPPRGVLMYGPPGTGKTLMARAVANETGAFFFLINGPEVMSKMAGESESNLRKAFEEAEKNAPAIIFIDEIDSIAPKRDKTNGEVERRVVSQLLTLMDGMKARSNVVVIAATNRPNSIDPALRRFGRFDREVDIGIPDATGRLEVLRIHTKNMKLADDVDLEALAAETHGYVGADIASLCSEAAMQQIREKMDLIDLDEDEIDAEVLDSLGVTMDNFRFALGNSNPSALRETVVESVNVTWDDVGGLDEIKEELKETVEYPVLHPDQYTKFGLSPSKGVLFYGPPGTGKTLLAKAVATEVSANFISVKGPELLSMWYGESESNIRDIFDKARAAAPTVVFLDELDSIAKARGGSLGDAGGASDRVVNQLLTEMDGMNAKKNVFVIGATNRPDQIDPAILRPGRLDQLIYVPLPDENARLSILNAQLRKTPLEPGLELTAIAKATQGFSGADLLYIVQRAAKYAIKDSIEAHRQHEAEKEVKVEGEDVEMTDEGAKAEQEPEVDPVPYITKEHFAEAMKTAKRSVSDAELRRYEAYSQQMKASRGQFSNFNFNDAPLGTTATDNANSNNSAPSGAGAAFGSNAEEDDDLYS
Briefly: pull-down; Otu1-C120S-FLAG on anti-FLAG M2 agarose with Cdc48, UN and Ub(n)-TAIL, with or without Ubx5, 1 μM each, SEC buffer, 5 mM ATPγS, 1 h, 4°C; fluorescence scanning and Coomassie-blue staining.

In test [5] the target is T4, Ufd1-Npl4 (UN) complex (yeast (S. cerevisiae), UniProt P53044 1-361; P33755 1-580).
T4 construct: Ufd1 of yeast; Npl4 of yeast; The methods call the complex untagged; the plasmids are described as Ufd1 with an N-terminal His14-SUMO tag and Npl4 with a C-terminal His6 or FLAG-His6 tag; also called untagged Ufd1/Npl4 (UN) complex; source: bacterial expression
T4 sequence 1: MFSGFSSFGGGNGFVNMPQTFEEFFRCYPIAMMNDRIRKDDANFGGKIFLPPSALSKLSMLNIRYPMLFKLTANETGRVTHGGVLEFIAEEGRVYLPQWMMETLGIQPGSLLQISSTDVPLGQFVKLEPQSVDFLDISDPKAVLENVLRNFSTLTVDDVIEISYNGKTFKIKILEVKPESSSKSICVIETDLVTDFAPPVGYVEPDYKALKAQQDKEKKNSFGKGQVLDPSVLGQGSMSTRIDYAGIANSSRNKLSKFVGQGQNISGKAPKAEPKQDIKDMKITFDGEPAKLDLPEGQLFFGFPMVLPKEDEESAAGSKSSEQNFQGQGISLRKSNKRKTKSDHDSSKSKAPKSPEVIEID
T4 sequence 2: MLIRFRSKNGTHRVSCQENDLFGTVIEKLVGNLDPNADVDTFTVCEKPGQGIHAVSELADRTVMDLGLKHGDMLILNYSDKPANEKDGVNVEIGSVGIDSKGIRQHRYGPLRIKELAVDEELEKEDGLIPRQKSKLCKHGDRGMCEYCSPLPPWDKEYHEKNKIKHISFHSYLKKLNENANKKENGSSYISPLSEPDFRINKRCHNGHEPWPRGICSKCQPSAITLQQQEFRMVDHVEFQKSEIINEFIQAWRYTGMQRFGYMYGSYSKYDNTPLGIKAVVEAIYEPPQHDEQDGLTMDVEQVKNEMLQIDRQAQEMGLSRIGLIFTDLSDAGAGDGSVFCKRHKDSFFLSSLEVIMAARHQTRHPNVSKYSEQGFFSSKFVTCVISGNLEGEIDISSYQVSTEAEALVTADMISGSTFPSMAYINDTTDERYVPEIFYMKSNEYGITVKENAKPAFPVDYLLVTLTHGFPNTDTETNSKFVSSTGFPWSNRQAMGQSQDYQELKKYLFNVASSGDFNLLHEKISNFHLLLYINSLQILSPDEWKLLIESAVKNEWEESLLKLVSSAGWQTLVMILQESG
The test is described as above.

T1 sequence (Q8TAT6 whole entry): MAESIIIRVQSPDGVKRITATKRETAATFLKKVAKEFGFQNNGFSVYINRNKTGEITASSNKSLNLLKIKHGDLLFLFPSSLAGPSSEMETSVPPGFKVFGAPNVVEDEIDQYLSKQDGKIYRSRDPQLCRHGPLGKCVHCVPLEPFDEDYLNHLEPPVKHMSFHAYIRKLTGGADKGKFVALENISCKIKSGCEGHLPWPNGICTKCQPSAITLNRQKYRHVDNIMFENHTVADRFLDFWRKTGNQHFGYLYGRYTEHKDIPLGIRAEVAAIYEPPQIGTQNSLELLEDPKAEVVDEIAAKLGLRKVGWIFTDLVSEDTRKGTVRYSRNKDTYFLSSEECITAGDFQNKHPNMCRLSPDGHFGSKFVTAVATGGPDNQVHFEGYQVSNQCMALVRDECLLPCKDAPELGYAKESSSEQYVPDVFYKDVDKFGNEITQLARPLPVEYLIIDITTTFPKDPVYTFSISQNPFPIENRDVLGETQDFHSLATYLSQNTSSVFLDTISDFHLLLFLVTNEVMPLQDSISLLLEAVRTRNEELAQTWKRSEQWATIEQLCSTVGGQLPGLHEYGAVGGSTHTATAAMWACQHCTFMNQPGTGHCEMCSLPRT

B1: Yod1-C160S (enzyme, human, UniProt Q5VVQ6 1-348, looked up)
chain: MFGPAKGRHFGVHPAPGFPGGVSQQAAGTKAGPAGAWPVGSRTDTMWRLRCKAKDGTHVLQGLSSRTRVRELQGQIAAITGIAPGGQRILVGYPPECLDLSNGDTILEDLPIQSGDMLIIEEDQTRPRSSPAFTKRGASSYVRETLPVLTRTVVPADNSSLFTSVYYVVEGGVLNPACAPEMRRLIAQIVASDPDFYSEAILGKTNQEYCDWIKRDDTWGGAIEISILSKFYQCEICVVDTQTVRIDRFGEDAGYTKRVLLIYDGIHYDPLQRNFPDPDTPPLTIFSSNDDIVLVQALELADEARRRRQFTDVNRFTLRCMVCQKGLTGQAEAREHAKETGHTNFGEV
notes: human deubiquitinating enzyme Yod1 with C160S; also called homolog of Otu1; source: E. coli BL21 CodonPlus (DE3) RIPL, purified (Ni-NTA, SEC)
As to B1, the binding result in test [1] was “binds”.

For B2, the binding result in test [2] and in test [3] was “binds” in each case.

B3: Otu1-C120S-FLAG (enzyme, S. cerevisiae, UniProt P43558 1-301, looked up)
chain: MKLKVTGAGINQVVTLKQDATLNDLIEHINVDVKTMRFGYPPQRINLQGEDASLGQTQLDELGINSGEKITIESSDSNESFSLPPPQPKPKRVLKSTEMSIGGSGENVLSVHPVLDDNSSLFHAIAYGIFKQDSVRDLREMVSKEVLNNPVKFNDAILDKPNKDYAQWILKMESWGGAIEIGIISDALAVAIYVVDIDAVKIEKFNEDKFDNYILILFNGIHYDSLTMNEFKTVFNKNQPESDDVLTAALQLASNLKQTGYSFNTHKAQIKCNTCQMTFVGEREVARHAESTGHVDFGQNR
notes: deubiquitinating enzyme Otu1 of yeast with C120S; pET28: N-terminal His6-tag, TEV-protease cleavage site, then a FLAG tag; source: E. coli BL21 CodonPlus (DE3) RIPL, purified (Ni-NTA, SEC); not shown: FLAG, N-terminal, kept
Regarding B3, the binding result in test [4] and in test [5] was “binds” throughout.
